Source: patent US20110105724A1 (published 2011)
Positions count from the first letter of the chain named.

T1: recombinant human ENA-78 (human, UniProt P42830 37-114)
T1 sequence (looked up): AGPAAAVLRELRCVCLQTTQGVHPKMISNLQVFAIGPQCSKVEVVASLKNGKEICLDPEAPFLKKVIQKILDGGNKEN

T2: recombinant human Groβ (human, UniProt P19875 35-107)
T2 construct: also called Gro-beta
T2 sequence (looked up): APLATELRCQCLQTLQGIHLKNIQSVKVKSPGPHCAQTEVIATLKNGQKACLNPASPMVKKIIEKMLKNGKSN

T3: human IL-8 (interleukin-8) (human, UniProt P10145 28-99, limits assumed)
T3 construct: also called recombinant human IL-8
T3 sequence (looked up): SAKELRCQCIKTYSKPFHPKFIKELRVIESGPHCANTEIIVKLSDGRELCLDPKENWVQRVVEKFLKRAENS

B1: mouse monoclonal antibody 1C1.5E5 (antibody, V domains shown)
VH: QVQLQQPGVELVMPGASVKLSCKASGYTFTSYWMHWVKQRPGQGLEWIGEIDPSDSNTNYNQKFKGKATLTLDKSSSTAYMQLTSLTSEDSAVYYCARELLHAVYWGQGTTLTVSS
VL: DIQMTQSPSSLSASLGGKVTITCTASQDIHKYISWFQHKPGKGPRLLIHYTSTLQPGIPSRFSGSGSGRDYSFSISNLEPEDVATYYCLQYDNLWTFGGGTKLDIKR
notes: also called 1C1.5E5 mAb
B2: chimeric antibody HcLc made from murine 1C1.5E5 (antibody, human IgG1, kappa, V domains shown)
VH: B1 VH with T111L, L112V
VL: B1 VL
notes: Murine variable regions on human IgG1 and human kappa constant regions; also called chimera
B3: humanized antibody A0L1 (antibody, human IgG1, kappa, V domains shown)
VH: QVQLVQSGAEVKKPGASVKVSCKASGYTFTSYWMHWVRQAPGQGLEWMGEIDPSDSNTNYNQKFKGRVTMTRDTSISTAYMELSRLRSDDTAVYYCARELLHAVYWGQGTLVTVSS
VL: DIQMTQSPSSLSASVGDRVTITCTASQDIHKYISWYQQKPGKAPKLLIHYTSTLQPGVPSRFSGSGSGTDFTFTISSLQPEDIATYYCLQYDNLWTFGQGTKVEIKR
notes: Humanized 1C1.5E5, human IgG1/kappa
B4: humanized antibody A0L0 (antibody, human IgG1, kappa, V domains shown)
VH: B3 VH
VL: B3 VL with H49Y, Y50D
notes: as for B3
B5: humanized antibody A1L2 (antibody, human IgG1, kappa, V domains shown)
VH: B3 VH with R67K
VL: B3 VL with F71Y
notes: Humanized 1C1.5E5, human IgG1/kappa; also called AIL2
B6: humanized antibody A0L2 (antibody, human IgG1, kappa, V domains shown)
VH: B3 VH
VL: B3 VL with F71Y
notes: as for B3
B7: humanized antibody A1L1 (antibody, human IgG1, kappa, V domains shown)
VH: B3 VH with R67K
VL: B3 VL
notes: Humanized 1C1.5E5, human IgG1/kappa; also called AIL1
B8: humanized antibody A1L0 (antibody, human IgG1, kappa, V domains shown)
VH: B3 VH with R67K
VL: B3 VL with H49Y, Y50D
notes: Humanized 1C1.5E5, human IgG1/kappa; also called AIL0

Assays:
[1] = target: T1, recombinant human ENA-78; assay: ELISA, hybridoma supernatant on immobilized recombinant chemokine
Text: (§1) Hyridoma supernatants were screened for their antibody binding activities to recombinant human IL-8, Groβ and ENA-78, immobilized on ELISA plates. […] They were further assessed for their ability to recognize guinea pig and cynomolgus monkey orthologues. Selected hybridomas were cloned by limiting dilution cloning. The antibody designated 1C1.5E5 was one of the antibodies specific for human IL-8 that were selected for further analysis. Following humanization, the antibody combinations designated A0L0, A0L1, A0L2, AIL0, AIL1, and AIL2 also were determined to retain the ability to bind human IL-8.

[2] = target: T2, recombinant human Groβ; assay: as above
Text: as §1

[3] = target: T3, human IL-8 (interleukin-8); assay: SPR (Biacore T100/A100), mouse mAb captured on anti-mouse IgG-Fc, IL-8 as analyte, 1:1 model
Text: Protein A or rabbit anti mouse IgG-Fc (Biacore BR-1005-14) was immobilised on a CM5 (Biacore BR-1000-14) chip by primary amine coupling in accordance with the manufactures instructions. Supernatant or purified from parental mouse mAb was captured on the antimouse IgG-Fc surface whilst chimeric antibody was captured on the Protein A surface. After capture defined concentrations of IL8 are passed over the antibody captured surface, a separate capture event was used for each analyte injection. […] An injection of buffer was also passed over the antibody captured surface and this was used for double referencing. For the analysis of the parental supernatant, an additional injection of an irrelevant mAb supernatant was injected over the antibody captured surface to detect any non-specific binding due to supernatant components. The data were analysed using the analysis software inherent to the machine, using the 1:1 model of binding. The work was carried out on the Biacore T100 or A100.

[4] = target: T3, human IL-8 (interleukin-8); assay: SPR (Biacore T100, 25 C), antibody captured on anti-human IgG, IL-8 as analyte, 1:1 model, Run 1
Text: (§2) Briefly the method for Biacore analysis was as follows, anti human IgG (Biacore BR-1008-39) was immobilised on a CM5 sensor chip via primary amine coupling. The humanised or chimeric antibodies were captured on this surface at between 440-500 resonance units (RU's). IL8 was then passed over the captured antibody surface at defined concentrations with regeneration using 3M MgCl₂ after each cycle. A buffer injection over the antibody captured surface was used for double referencing. The run was carried out at 25° C. using HBS-EP buffer, on A Biacore T100 machine. The data was analysed using the 1:1 model in the analysis software inherent to the machine. Table below details the results from two separate runs. Run 1 used IL8 concentrations of 64 nM, 16 nM, 4 nM, 1 nM, 0.25 nM, whilst Run 2 used II8 concentrations 32 nM, 16 nM, 8 nM, 4 nM, 2 nM, 1 nM, 0.5 nM, 0.25 nM.

[5] = target: T3, human IL-8 (interleukin-8); assay: SPR (Biacore T100, 25 C), antibody captured on anti-human IgG, IL-8 as analyte, 1:1 model, Run 2
Text: as §2

[6] = target: T3, human IL-8 (interleukin-8); assay: ELISA

Binder | binding result [1] | binding result [2] | Kd [3] | koff [3] | Kd [4] | koff [4] | kon [4] | Kd [5] | koff [5] | kon [5] | binding result [6]
B1 | no binding | no binding | 0.0454 nM | 0.000184 s⁻¹ | – | – | – | – | – | – | –
B2 | – | – | – | – | 0.0184 nM | 0.000506 s⁻¹ | 2.75e+07 M⁻¹ s⁻¹ | 0.0211 nM | 0.000566 s⁻¹ | 2.68e+07 M⁻¹ s⁻¹ | –
B3 | – | – | – | – | 0.0676 nM | 0.001 s⁻¹ | 1.49e+07 M⁻¹ s⁻¹ | 0.0679 nM | 0.00106 s⁻¹ | 1.56e+07 M⁻¹ s⁻¹ | –
B4 | – | – | – | – | 0.0712 nM | 0.000791 s⁻¹ | 1.11e+07 M⁻¹ s⁻¹ | 0.0816 nM | 0.000772 s⁻¹ | 9.5e+06 M⁻¹ s⁻¹ | –
B5 | – | – | – | – | – | – | – | – | – | – | binds
B6 | – | – | – | – | – | – | – | – | – | – | binds
B7 | – | – | – | – | – | – | – | – | – | – | binds
B8 | – | – | – | – | 0.0872 nM | 0.000735 s⁻¹ | 8.43e+06 M⁻¹ s⁻¹ | 0.0954 nM | 0.00075 s⁻¹ | 7.87e+06 M⁻¹ s⁻¹ | –
